T1: His6-WDR91(392-747) (UniProt A4D1P6 392-747)
T1 sequence: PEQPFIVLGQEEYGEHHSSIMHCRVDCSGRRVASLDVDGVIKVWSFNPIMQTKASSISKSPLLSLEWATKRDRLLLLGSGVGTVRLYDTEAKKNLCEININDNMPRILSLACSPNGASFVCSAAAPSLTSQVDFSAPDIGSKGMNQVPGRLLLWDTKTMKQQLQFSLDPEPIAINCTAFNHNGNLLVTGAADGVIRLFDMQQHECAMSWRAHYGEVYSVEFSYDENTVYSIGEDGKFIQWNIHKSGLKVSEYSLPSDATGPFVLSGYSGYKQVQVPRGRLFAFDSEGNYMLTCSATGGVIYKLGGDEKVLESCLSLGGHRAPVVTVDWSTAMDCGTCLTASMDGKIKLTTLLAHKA

B1: GST-SNX2 (natural protein)
chain: MAAEREPPPLGDGKPTDFEDLEDGEDLFTSTVSTLESSPSSPEPASLPAEDISANSNGPKPTEVVLDDDREDLFAEATEEVSLDSPEREPILSSEPSPAVTPVTPTTLIAPRIESKSMSAPVIFDRSREEIEEEANGDIFDIEIGVSDPEKVGDGMNAYMAYRVTTKTSLSMFSKSEFSVKRRFSDFLGLHSKLASKYLHVGYIVPPAPEKSIVGMTKVKVGKEDSSSTEFVEKRRAALERYLQRTVKHPTLLQDPDLRQFLESSELPRAVNTQALSGAGILRMVNKAADAVNKMTIKMNESDAWFEEKQQQFENLDQQLRKLHVSVEALVCHRKELSANTAAFAKSAAMLGNSEDHTALSRALSQLAEVEEKIDQLHQEQAFADFYMFSELLSDYIRLIAAVKGVFDHRMKCWQKWEDAQITLLKKREAEAKMMVANKPDKIQQAKNEIREWEAKVQQGERDFEQISKTIRKEVGRFEKERVKDFKTVIIKYLESLVQTQQQLIKYWEAFLPEAKAIA
B2: WDR91-His6 (natural protein)
chain: MAEAVERTDELVREYLLFRGFTHTLRQLDAEIKADKEKGFRVDKIVDQLQQLMQVYDLAALRDYWSYLERRLFSRLEDIYRPTIHKLKTSLFRFYLVYTIQTNRNDKAQEFFAKQATELQNQAEWKDWFVLPFLPSPDTNPTFATYFSRQWADTFIVSLHNFLSVLFQCMPVPVILNFDAECQRTNQVQEENEVLRQKLFALQAEIHRLKKEEQQPEEEEALVQHKLPPYVSNMDRLGDSELAMVCSQRNASLSQSPRVGFLSSLLPQSKKSPSRLSPAQGPPQPQSSAKKESFGGQGTKGKDPTSGAKDGKSLLSGLATGESGWSQHRQRRLQDHGKERKELFSTTTSQCAEKKPEASGPEAEPCPELHTEPVEPLTRASSAGPEGGGVRPEQPFIVLGQEEYGEHHSSIMHCRVDCSGRRVASLDVDGVIKVWSFNPIMQTKASSISKSPLLSLEWATKRDRLLLLGSGVGTVRLYDTEAKKNLCEININDNMPRILSLACSPNGASFVCSAAAPSLTSQVDFSAPDIGSKGMNQVPGRLLLWDTKTMKQQLQFSLDPEPIAINCTAFNHNGNLLVTGAADGVIRLFDMQQHECAMSWRAHYGEVYSVEFSYDENTVYSIGEDGKFIQWNIHKSGLKVSEYSLPSDATGPFVLSGYSGYKQVQVPRGRLFAFDSEGNYMLTCSATGGVIYKLGGDEKVLESCLSLGGHRAPVVTVDWSTAMDCGTCLTASMDGKIKLTTLLAHKA
B3: GST-SNX27(PX) (domain or fragment)
chain: EKQAVPISVPRYKHVEQNGEKFVVYNVYMAGRQLCSKRYREFAILHQNLKREFANFTFPRLPGKWPFSLSEQQLDARRRGLEEYLEKVCSIRVIGESDIMQEFLSESDENYNGVS

Columns and labels:
Assay in all cases: pull-down
[1] = target: B2
[2] = target: GST-VPS35 (UniProt Q96QK1 1-796)
[3] = target: GST-SNX27 (UniProt Q96L92 1-541)
[4] = target: T1, His6-WDR91(392-747)

| Binder | binding result [1] | binding result [2] | binding result [3] | binding result [4] |
| --- | --- | --- | --- | --- |
| B1 | binds |  |  |  |
| B2 |  | binds | binds |  |
| B3 | binds |  |  | binds |

Source: paper PMC9531996 (The Journal of Cell Biology, 2022)
